Results reported in patent US20250230248A1.

What was measured:
[1] = molecular target: human C1q (human) (UniProt P02745)
[2] = molecular target: recombinant human CD64 (human) (UniProt P12314)
[3] = molecular target: recombinant human CD32a (human) (UniProt P12318)
[4] = molecular target: recombinant human CD16a (human) (UniProt P08637)
Chain of recombinant human CD16a (human) (P08637 17-208 limits assumed): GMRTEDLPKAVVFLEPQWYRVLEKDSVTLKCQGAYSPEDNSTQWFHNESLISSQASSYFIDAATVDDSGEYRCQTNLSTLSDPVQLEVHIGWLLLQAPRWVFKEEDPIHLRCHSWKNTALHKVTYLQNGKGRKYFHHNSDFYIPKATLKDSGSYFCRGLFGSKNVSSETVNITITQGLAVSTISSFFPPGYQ

Chain of recombinant human CD64 (human) (P12314 16-288 limits assumed): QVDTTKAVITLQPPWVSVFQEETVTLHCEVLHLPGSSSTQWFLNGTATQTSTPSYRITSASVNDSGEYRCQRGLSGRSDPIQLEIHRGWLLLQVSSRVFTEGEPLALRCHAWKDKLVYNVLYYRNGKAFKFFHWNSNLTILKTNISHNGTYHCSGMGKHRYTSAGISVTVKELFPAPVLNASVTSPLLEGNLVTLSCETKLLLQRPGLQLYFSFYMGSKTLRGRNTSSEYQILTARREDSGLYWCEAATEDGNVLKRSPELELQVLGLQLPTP
Chain of human C1q (human) (P02745 23-245 limits assumed, chain 1 of 3): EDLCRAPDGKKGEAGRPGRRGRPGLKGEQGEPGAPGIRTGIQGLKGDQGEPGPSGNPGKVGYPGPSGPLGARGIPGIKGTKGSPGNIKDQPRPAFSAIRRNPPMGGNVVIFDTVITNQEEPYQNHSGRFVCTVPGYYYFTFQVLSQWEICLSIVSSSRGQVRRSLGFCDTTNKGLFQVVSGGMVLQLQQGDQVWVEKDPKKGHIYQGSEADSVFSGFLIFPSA
Chain of human C1q (human) (P02746 28-253 limits assumed, chain 2 of 3, further chain): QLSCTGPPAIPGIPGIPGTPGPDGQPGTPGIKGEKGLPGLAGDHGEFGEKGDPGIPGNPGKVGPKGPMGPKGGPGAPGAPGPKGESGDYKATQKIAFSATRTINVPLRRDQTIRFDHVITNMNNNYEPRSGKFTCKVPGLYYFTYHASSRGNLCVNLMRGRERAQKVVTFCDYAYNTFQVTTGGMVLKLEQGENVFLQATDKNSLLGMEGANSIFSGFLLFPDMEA
Chain of human C1q (human) (P02747 29-245 limits assumed, chain 3 of 3, further chain): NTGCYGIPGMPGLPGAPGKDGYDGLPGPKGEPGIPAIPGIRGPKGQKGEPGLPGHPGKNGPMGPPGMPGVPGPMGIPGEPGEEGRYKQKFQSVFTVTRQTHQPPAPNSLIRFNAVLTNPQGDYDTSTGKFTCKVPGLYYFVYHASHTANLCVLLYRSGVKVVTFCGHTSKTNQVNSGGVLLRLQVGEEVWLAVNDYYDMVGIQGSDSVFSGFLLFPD
Chain of recombinant human CD32a (human) (P12318 34-217): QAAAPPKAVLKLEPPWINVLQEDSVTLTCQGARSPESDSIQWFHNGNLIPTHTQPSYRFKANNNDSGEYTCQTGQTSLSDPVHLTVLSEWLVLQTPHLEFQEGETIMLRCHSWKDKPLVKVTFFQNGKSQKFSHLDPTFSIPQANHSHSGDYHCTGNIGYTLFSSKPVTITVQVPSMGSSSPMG

- EC50 [1]: 14.1 nM
- EC50 [2]: 0.12 nM
- EC50 [3]: 14 nM
- EC50 [4]: 3.7 nM
Substance: isotype mAb with human IgG1 (antibody)
